Experimental data as given in article PMC3196243.
Read-outs that look alike come from different tables or passages of the source.

Tests used:
[1] = molecular target: RAGE 129-336 (Homo sapiens) (UniProt Q15109); conditions: cited from earlier work
S100B [2] = molecular target: S100B (UniProt P04271); assay: NMR titration
S100B [3] = molecular target: S100B (UniProt P04271); assay: NMR titration; remark: listed apart in the source
[4] = molecular target: Myelin-associated glycoprotein (Homo sapiens) (UniProt P20916); conditions: cited from earlier work
Myelin-associated glycoprotein (Homo sapiens), sequence (P20916 20-626): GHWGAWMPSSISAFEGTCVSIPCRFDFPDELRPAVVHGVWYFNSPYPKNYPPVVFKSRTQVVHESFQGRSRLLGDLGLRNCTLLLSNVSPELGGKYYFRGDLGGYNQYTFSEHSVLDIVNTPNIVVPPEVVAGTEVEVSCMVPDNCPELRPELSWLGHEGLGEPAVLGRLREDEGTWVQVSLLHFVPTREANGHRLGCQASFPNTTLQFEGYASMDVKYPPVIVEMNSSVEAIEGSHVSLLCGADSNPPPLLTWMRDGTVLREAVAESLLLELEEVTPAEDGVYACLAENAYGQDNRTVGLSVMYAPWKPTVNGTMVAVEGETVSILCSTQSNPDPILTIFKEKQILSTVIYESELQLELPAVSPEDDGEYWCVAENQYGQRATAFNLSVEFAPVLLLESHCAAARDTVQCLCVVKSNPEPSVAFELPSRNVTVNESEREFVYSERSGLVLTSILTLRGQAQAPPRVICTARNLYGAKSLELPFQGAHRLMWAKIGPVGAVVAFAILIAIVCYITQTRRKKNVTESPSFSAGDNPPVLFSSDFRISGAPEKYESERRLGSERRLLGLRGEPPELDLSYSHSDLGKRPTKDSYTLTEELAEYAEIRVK

SIP (Homo sapiens) = SIP (Homo sapiens) (UniProt Q9HB71); conditions: cited from earlier work
SIP (Homo sapiens), sequence (Q9HB71 2-228): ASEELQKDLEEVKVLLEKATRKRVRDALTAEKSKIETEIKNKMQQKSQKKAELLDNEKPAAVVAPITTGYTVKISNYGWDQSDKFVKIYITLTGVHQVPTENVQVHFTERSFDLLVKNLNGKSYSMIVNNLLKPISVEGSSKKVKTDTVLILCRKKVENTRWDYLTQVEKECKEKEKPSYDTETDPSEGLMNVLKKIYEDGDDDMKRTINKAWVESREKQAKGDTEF

[5] = molecular target: TRTK-12 TRTK-12 (Homo sapiens) (UniProt P52907); conditions: cited from earlier work
[6] = molecular target: p53 362-393 (Homo sapiens) (UniProt P04637); conditions: cited from earlier work
p53 362-393 (Homo sapiens), sequence (P04637 362-393): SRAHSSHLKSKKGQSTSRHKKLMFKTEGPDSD

S100B (from UniProt P04271), sequence (P04271 2-92): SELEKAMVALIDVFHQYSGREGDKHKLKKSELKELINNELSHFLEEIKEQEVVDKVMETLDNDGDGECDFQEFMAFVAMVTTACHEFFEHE
S100B (UniProt P04271), sequence (P04271 2-92): as above
RAGE 129-336 (Homo sapiens), sequence (Q15109 129-336): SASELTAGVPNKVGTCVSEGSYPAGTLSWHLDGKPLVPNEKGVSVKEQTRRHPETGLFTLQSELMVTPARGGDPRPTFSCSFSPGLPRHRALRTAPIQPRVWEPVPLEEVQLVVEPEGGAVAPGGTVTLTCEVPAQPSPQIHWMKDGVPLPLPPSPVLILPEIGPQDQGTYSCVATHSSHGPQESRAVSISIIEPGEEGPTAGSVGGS
S100A2, sequence (P29034 whole entry): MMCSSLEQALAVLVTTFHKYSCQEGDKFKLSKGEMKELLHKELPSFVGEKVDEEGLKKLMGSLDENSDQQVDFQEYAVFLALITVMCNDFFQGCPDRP
S100A12, sequence (P80511 2-92): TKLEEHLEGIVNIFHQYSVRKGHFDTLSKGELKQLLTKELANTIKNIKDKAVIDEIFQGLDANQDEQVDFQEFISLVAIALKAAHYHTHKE

S100A12 (from UniProt P80511)
Kd [1]: 140 µM

IC3-M28 (from UniProt P61169-2 288-315) (peptide)
Kd (S100B [2]): 148 µM
Kd (S100B [3]): 149 µM

S100B (from UniProt P04271)
Kd [4]: 7 µM
Kd (SIP (Homo sapiens)): 5 µM
Kd [5]: 0.3 µM

IC3-C30 (from UniProt P61169-2 316-345) (peptide)
Kd (S100B [3]): 98 µM

S100A2 (from UniProt P29034)
Kd [6]: 106 µM
